In patent US20260167699A1 (Chugai, published 2026):
One block for each binder: values may come before it.

Target: T1, FcγRIIIa (human, UniProt P08637 17-208)
T1 construct: extracellular domain; also called 3a; FcγRIIIa extracellular domain
Assay: SPR (Biacore);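 note: antibody variants captured on an SPR sensor chip, with FcγRIIIa passed over as analyte in HBS-EP+ buffer at 25 °C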

T1 sequence (P08637 other isoform, or with tags, fused parts or gaps): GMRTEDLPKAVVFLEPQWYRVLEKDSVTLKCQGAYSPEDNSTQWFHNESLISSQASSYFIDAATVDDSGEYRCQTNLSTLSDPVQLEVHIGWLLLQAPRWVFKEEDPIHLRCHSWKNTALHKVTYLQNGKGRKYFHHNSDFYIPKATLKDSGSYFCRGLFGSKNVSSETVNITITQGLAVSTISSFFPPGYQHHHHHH

B2: GpH7-A5/GpH7-B3 variant E333_14T/GpL16-k0 (antibody, human IgG1, kappa)
heavy 1: not shown
heavy 2: not shown
light: DIVMTQSPLSLPVTPGEPASISCQASESLVHSNRNTYLHWYLQKPGQSPQLLIYKVSNRFSGVPDRFSGSGSGTDFTLKISRVEAEDVGVYYCSQNTHVPPTFGQGTKVEIERTVAAPSVFIFPPSDEQLKSGTASVVCLLNNFYPREAKVQWKVDNALQSGNSQESVTEQDSKDSTYSLSSTLTLSKADYEKHKVYACEVTHQGLSSPVTKSFNRGEC
notes: copies: 1 + 1 + 2
He/Con 3a: 100 % of GpH7-A5/GpH7-B3/GpL16-k0

B3: GpH7-A5/GpH7-B3 variant H268_09D/GpL16-k0 (antibody, human IgG1, kappa)
heavy 1: not shown
heavy 2: not shown
light: B2 light
notes: copies: 1 + 1 + 2
He/Con 3a: 195 % of GpH7-A5/GpH7-B3/GpL16-k0

B5: GpH7-A5/GpH7-B3 variant H268_10E/GpL16-k0 (antibody, human IgG1, kappa)
heavy 1: not shown
heavy 2: not shown
light: B2 light
notes: copies: 1 + 1 + 2
He/Con 3a: 184 % of GpH7-A5/GpH7-B3/GpL16-k0

B7: GpH7-A5/GpH7-B3 variant H268_18N/GpL16-k0 (antibody, human IgG1, kappa)
heavy 1: not shown
heavy 2: not shown
light: B2 light
notes: copies: 1 + 1 + 2
He/Con 3a: 103 % of GpH7-A5/GpH7-B3/GpL16-k0

B9: GpH7-A5/GpH7-B3 variant H268_02A/GpL16-k0 (antibody, human IgG1, kappa)
heavy 1: not shown
heavy 2: not shown
light: B2 light
notes: copies: 1 + 1 + 2
He/Con 3a: 121 % of GpH7-A5/GpH7-B3/GpL16-k0

B11: GpH7-A5/GpH7-B3 variant G236_02A/GpL16-k0 (antibody, human IgG1, kappa)
heavy 1: not shown
heavy 2: not shown
light: B2 light
notes: copies: 1 + 1 + 2
He/Con 3a: 77 % of GpH7-A5/GpH7-B3/GpL16-k0

B12: GpH7-A5/GpH7-B3 variant E333_20W/GpL16-k0 (antibody, human IgG1, kappa)
heavy 1: not shown
heavy 2: not shown
light: B2 light
notes: copies: 1 + 1 + 2
He/Con 3a: 104 % of GpH7-A5/GpH7-B3/GpL16-k0

B13: GpH7-A5/GpH7-B3 variant H268_03V/GpL16-k0 (antibody, human IgG1, kappa)
heavy 1: not shown
heavy 2: not shown
light: B2 light
notes: copies: 1 + 1 + 2
He/Con 3a: 91.4 % of GpH7-A5/GpH7-B3/GpL16-k0

B15: GpH7-A5/GpH7-B3 variant I332_01G/GpL16-k0 (antibody, human IgG1, kappa)
heavy 1: not shown
heavy 2: not shown
light: B2 light
notes: copies: 1 + 1 + 2
He/Con 3a: 101 % of GpH7-A5/GpH7-B3/GpL16-k0

B16: GpH7-A5/GpH7-B3 variant E333_15Y/GpL16-k0 (antibody, human IgG1, kappa)
heavy 1: not shown
heavy 2: not shown
light: B2 light
notes: copies: 1 + 1 + 2
He/Con 3a: 101 % of GpH7-A5/GpH7-B3/GpL16-k0

B17: GpH7-A5/GpH7-B3 variant H268_04F/GpL16-k0 (antibody, human IgG1, kappa)
heavy 1: not shown
heavy 2: not shown
light: B2 light
notes: copies: 1 + 1 + 2
He/Con 3a: 96 % of GpH7-A5/GpH7-B3/GpL16-k0

B18: GpH7-A5/GpH7-B3 variant H268_14T/GpL16-k0 (antibody, human IgG1, kappa)
heavy 1: not shown
heavy 2: not shown
light: B2 light
notes: copies: 1 + 1 + 2
He/Con 3a: 90.3 % of GpH7-A5/GpH7-B3/GpL16-k0

B20: GpH7-A5/GpH7-B3 variant H268_08L/GpL16-k0 (antibody, human IgG1, kappa)
heavy 1: not shown
heavy 2: not shown
light: B2 light
notes: copies: 1 + 1 + 2
He/Con 3a: 75.9 % of GpH7-A5/GpH7-B3/GpL16-k0

B22: GpH7-A5/GpH7-B3 variant G236_13S/GpL16-k0 (antibody, human IgG1, kappa)
heavy 1: not shown
heavy 2: not shown
light: B2 light
notes: copies: 1 + 1 + 2
He/Con 3a: 60.3 % of GpH7-A5/GpH7-B3/GpL16-k0

B23: GpH7-A5/GpH7-B3 variant G237_14T/GpL16-k0 (antibody, human IgG1, kappa)
heavy 1: not shown
heavy 2: not shown
light: B2 light
notes: copies: 1 + 1 + 2
He/Con 3a: 50.5 % of GpH7-A5/GpH7-B3/GpL16-k0

B24: GpH7-A5/GpH7-B3 variant G236_04F/GpL16-k0 (antibody, human IgG1, kappa)
heavy 1: not shown
heavy 2: not shown
light: B2 light
notes: copies: 1 + 1 + 2
He/Con 3a: 81 % of GpH7-A5/GpH7-B3/GpL16-k0

B25: GpH7-A5/GpH7-B3 variant H268_11K/GpL16-k0 (antibody, human IgG1, kappa)
heavy 1: not shown
heavy 2: not shown
light: B2 light
notes: copies: 1 + 1 + 2
He/Con 3a: 81.6 % of GpH7-A5/GpH7-B3/GpL16-k0

B27: GpH7-A5/GpH7-B3 variant H268_15Y/GpL16-k0 (antibody, human IgG1, kappa)
heavy 1: not shown
heavy 2: not shown
light: B2 light
notes: copies: 1 + 1 + 2
He/Con 3a: 96.5 % of GpH7-A5/GpH7-B3/GpL16-k0

B28: GpH7-A5/GpH7-B3 variant G236_03V/GpL16-k0 (antibody, human IgG1, kappa)
heavy 1: not shown
heavy 2: not shown
light: B2 light
notes: copies: 1 + 1 + 2
He/Con 3a: 53.8 % of GpH7-A5/GpH7-B3/GpL16-k0

B31: GpH7-A5/GpH7-B3 variant E333_19Q/GpL16-k0 (antibody, human IgG1, kappa)
heavy 1: not shown
heavy 2: not shown
light: B2 light
notes: copies: 1 + 1 + 2
He/Con 3a: 101 % of GpH7-A5/GpH7-B3/GpL16-k0

Second part, the binder after the results:

He/Con 3a: 104 % of GpH7-A5/GpH7-B3/GpL16-k0
B1: GpH7-A5/GpH7-B3 variant I336_06M/GpL16-k0 (antibody, human IgG1, kappa)
heavy 1: not shown
heavy 2: not shown
light: B2 light
notes: printed 1336_06M, read as I336_06M; also called 1336_06M; copies: 1 + 1 + 2

He/Con 3a: 84.9 % of GpH7-A5/GpH7-B3/GpL16-k0
B4: GpH7-A5/GpH7-B3 variant I332_18N/GpL16-k0 (antibody, human IgG1, kappa)
heavy 1: not shown
heavy 2: not shown
light: B2 light
notes: copies: 1 + 1 + 2

He/Con 3a: 89.3 % of GpH7-A5/GpH7-B3/GpL16-k0
B6: GpH7-A5/GpH7-B3 variant I332_04F/GpL16-k0 (antibody, human IgG1, kappa)
heavy 1: not shown
heavy 2: not shown
light: B2 light
notes: copies: 1 + 1 + 2

He/Con 3a: 213 % of GpH7-A5/GpH7-B3/GpL16-k0
B8: GpH7-A5/GpH7-B3 variant I332_10E/GpL16-k0 (antibody, human IgG1, kappa)
heavy 1: not shown
heavy 2: not shown
light: B2 light
notes: copies: 1 + 1 + 2

He/Con 3a: 95.6 % of GpH7-A5/GpH7-B3/GpL16-k0
B10: GpH7-A5/GpH7-B3 variant I332_13S/GpL16-k0 (antibody, human IgG1, kappa)
heavy 1: not shown
heavy 2: not shown
light: B2 light
notes: copies: 1 + 1 + 2

He/Con 3a: 78.1 % of GpH7-A5/GpH7-B3/GpL16-k0
B14: GpH7-A5/GpH7-B3 variant I332_12R/GpL16-k0 (antibody, human IgG1, kappa)
heavy 1: not shown
heavy 2: not shown
light: B2 light
notes: copies: 1 + 1 + 2

He/Con 3a: 92.5 % of GpH7-A5/GpH7-B3/GpL16-k0
B19: GpH7-A5/GpH7-B3 variant I332_06M/GpL16-k0 (antibody, human IgG1, kappa)
heavy 1: not shown
heavy 2: not shown
light: B2 light
notes: copies: 1 + 1 + 2

He/Con 3a: 103 % of GpH7-A5/GpH7-B3/GpL16-k0
B21: GpH7-A5/GpH7-B3 variant I332_02A/GpL16-k0 (antibody, human IgG1, kappa)
heavy 1: not shown
heavy 2: not shown
light: B2 light
notes: copies: 1 + 1 + 2

He/Con 3a: 56.3 % of GpH7-A5/GpH7-B3/GpL16-k0
B26: GpH7-A5/GpH7-B3 variant I332_05P/GpL16-k0 (antibody, human IgG1, kappa)
heavy 1: not shown
heavy 2: not shown
light: B2 light
notes: copies: 1 + 1 + 2

He/Con 3a: 102 % of GpH7-A5/GpH7-B3/GpL16-k0
B29: GpH7-A5/GpH7-B3 variant I336_08L/GpL16-k0 (antibody, human IgG1, kappa)
heavy 1: not shown
heavy 2: not shown
light: B2 light
notes: copies: 1 + 1 + 2

He/Con 3a: 92.4 % of GpH7-A5/GpH7-B3/GpL16-k0
B30: GpH7-A5/GpH7-B3 variant I332_15Y/GpL16-k0 (antibody, human IgG1, kappa)
heavy 1: not shown
heavy 2: not shown
light: B2 light
notes: copies: 1 + 1 + 2
